According to patent US20110124565:

Test system: FVIII L99 (B domain deleted FVIII with R372A and Val374 replaced by a 99 amino acid Gly/Ser linker)

human activated Protein C
remaining FVIII activity (FXa generation test) after addition of human APC with or without protein S: FVIII L99 could be inactivated by human APC with or without Protein S
